Test results taken from patent US20120014954A1 (ABRAXIS BIOSCIENCE, published 2012).

T1: Secreted Protein, Acidic, Rich in Cysteines (SPARC) (UniProt P09486 18-303)
T1 construct: also called osteonectin; SPARC protein
T1 sequence (looked up): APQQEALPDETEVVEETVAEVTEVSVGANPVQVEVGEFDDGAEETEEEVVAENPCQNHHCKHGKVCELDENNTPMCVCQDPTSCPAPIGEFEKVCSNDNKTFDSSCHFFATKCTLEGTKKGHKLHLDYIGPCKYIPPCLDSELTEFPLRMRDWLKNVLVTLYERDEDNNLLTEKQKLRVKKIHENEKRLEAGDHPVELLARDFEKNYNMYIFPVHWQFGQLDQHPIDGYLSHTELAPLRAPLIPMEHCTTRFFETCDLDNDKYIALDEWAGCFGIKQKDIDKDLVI

T2: HTI SPARC (purified platelet SPARC obtained from HTI) (UniProt P09486 18-303)
T2 sequence (looked up): T1 sequence (looked up)

T3: Abx SPARC (SPARC from engineered HEK293 cells produced by Abraxis) (UniProt P09486 18-303, limits assumed)
T3 sequence (looked up): T1 sequence (looked up)

B1: PD 21 (peptide)
peptide: VTPLLKFRALSS
notes: 12-mer from the Ph.D.-12 phage library; The peptide was cloned into pFUSE-hIgG1-Fc2 and expressed as the PD 21-Fc fusion; also called peptide 21; PD 21-Fc
B2: PD 15 (peptide)
peptide: YTRLHHWIPPQR
notes: 12-mer from the Ph.D.-12 phage library; The peptide was cloned into pFUSE-hIgG1-Fc2 and expressed as the PD 15-Fc fusion; also called peptide 15; PD 15-Fc
B3: ScFv 2-1 (scFv)
scFv: EVQLLESGGGLVQPGGSLRLSCAASGFTFSSYAMSWVRQAPGKGLEWVSMITPLGSTTAYADSVKGRFTISRDNSKNTLYLQMNSLRAEDTAVYYCAKRAGVFDYWGQGTLVTVSSGGGGSGGGGSGGGGSTDIQMTQSPSSLSASVGDRVTITCRASQSISSYLNWYQQKPGKAPKLLIYRASTLQSGVPSRFSGSGSGTDFTLTISSLQPEDFATYYCQQNDSFPTTFGQGTKVEIKR
notes: It was purified from bacteria on a nickel column
B4: ScFv 3-2 (scFv)
scFv: EIVMTQSPGTLSLSPGDRATLSCRASQSVSGYLAWYQQKPGQAPRLLIYDASNRATGIPARFSGSGSGTDFTLTISSLQAEDVAVYYCQQYYSTLPTFGQGTKLEIKRSGGSTITSYNVYYTKLSSSGTQVQLVQSGGGVVQPGRPLKLSCAASGFTFSSYAMHWVRQAPGKGLEWVAVISYDGSNKYYADSVKGRFTISRDNSKNTLYLQMNSLRAEDTAVYYCARDLSWNDAFDIWGQGTMVTVSSAS

Each molecule was assayed against T1, Secreted Protein, Acidic, Rich in … (assay: concentration-dependent binding ELISA).

Compared with B1, B2 is 2.4-fold lower in Kd: 100 nM for the first, 41 nM for the second.

These molecules were tested against T1, Secreted Protein, Acidic, Rich in … (assay: concentration-dependent ELISA on SPARC).

Compared with B1, B2 is 1.5-fold lower in “EC50 (read off the curve)” value: ~3 µg/mL for the first, ~2 µg/mL for the second.

First: B1
Second: B2
The Kd of the first is 410-fold lower: 1 nM for the first, 410 nM for the second. The first binds more tightly here.

What follows are molecules tested against T1, Secreted Protein, Acidic, Rich in … (assay: phage ELISA on SPARC-coated wells; OD column 1 of 3).
From the text: (§1) Accordingly, a commercial peptide phage display library (12-mer peptides in M13) was screened for peptides which bind to SPARC. The target, SPARC is an acidic glycoprotein with a PI of 4.6. By immobilization on 96-wells plates with pH 9.6 coating buffer, Ph.D.-12 peptide library was screened four rounds to select peptide binders using phage display technology. Specifically, bound phages were eluted with an acidic eluting solution in the 1st round of screening. Then the screening stringency was enhanced gradually by decreasing the target protein concentration and increasing the percentage of Tween-20 in washing buffer. At the same time, competitive elution with excess target was adopted to improve the screening specificity. Finally, after four rounds of screening, ssDNA of selected clones were subjected to DNA sequencing. At the same time, the binding of the positive phages to the target protein was validated using phage ELISA.

Compared with IDKPLHVVLALG (also called clone 184), IPFATAAYNAPG (also called clone 191) is lower in OD: 0.634 for the first, 0.564 for the second.

First: B1
Second: HYFSRTQTLSTL (also called clone 194)
The OD of the first is lower: 0.45 for the first, 0.494 for the second.

Compared with SAHTLAAWFAKP (also called clone 204), QILGYPTNLGPF (also called clone 135) is lower in OD: 0.8 for the first, 0.626 for the second.

Compared with VPATRVSPTPYA (also called clone 133), LSTHKLFHSHSQ (also called clone 180) is higher in OD: 0.545 for the first, 1.21 for the second.

Compared with AAAPLNLSMTFP (also called clone 182), B2 is lower in OD: 0.756 for the first, 0.597 for the second.

Compared with TTHSELSGYVEL (also called clone 188), VSHPPRFPGWPQ (also called clone 59) is higher in OD: 0.716 for the first, 0.737 for the second.

Compared with TSYLNSGMIPAR (also called clone 63), VGNMPFVHPHQW (also called clone 192) is lower in OD: 0.688 for the first, 0.567 for the second.

First: KAYLDSIPITPR (also called clone 60)
Second: TQWHDDSTFYWL (also called clone 186)
The OD of the first is lower: 0.619 for the first, 0.903 for the second.

Each molecule was assayed against T1, Secreted Protein, Acidic, Rich in … (assay: phage ELISA on SPARC-coated wells; OD column 2 of 3).
From the text: as §1

Compared with IDKPLHVVLALG (also called clone 184), IPFATAAYNAPG (also called clone 191) is lower in OD: 0.635 for the first, 0.567 for the second.

Going from B1 to HYFSRTQTLSTL (also called clone 194), the OD rises from 0.443 to 0.514.

Going from SAHTLAAWFAKP (also called clone 204) to QILGYPTNLGPF (also called clone 135), the OD falls from 0.748 to 0.652.

Going from VPATRVSPTPYA (also called clone 133) to LSTHKLFHSHSQ (also called clone 180), the OD rises from 0.554 to 1.28.

Compared with AAAPLNLSMTFP (also called clone 182), B2 is lower in OD: 0.782 for the first, 0.516 for the second.

Compared with TTHSELSGYVEL (also called clone 188), VSHPPRFPGWPQ (also called clone 59) is lower in OD: 0.682 for the first, 0.628 for the second.

Compared with TSYLNSGMIPAR (also called clone 63), VGNMPFVHPHQW (also called clone 192) is lower in OD: 0.664 for the first, 0.5 for the second.

First: KAYLDSIPITPR (also called clone 60)
Second: TQWHDDSTFYWL (also called clone 186)
The OD of the first is lower: 0.611 for the first, 0.985 for the second.

These molecules were tested against T1, Secreted Protein, Acidic, Rich in … (assay: phage ELISA on SPARC-coated wells; OD column 3 of 3).
From the text: as §1

Going from IDKPLHVVLALG (also called clone 184) to IPFATAAYNAPG (also called clone 191), the OD rises from 0.554 to 0.58.

Going from B1 to HYFSRTQTLSTL (also called clone 194), the OD rises from 0.438 to 0.521.

First: SAHTLAAWFAKP (also called clone 204)
Second: QILGYPTNLGPF (also called clone 135)
The OD of the first is higher: 0.779 for the first, 0.66 for the second.

First: VPATRVSPTPYA (also called clone 133)
Second: LSTHKLFHSHSQ (also called clone 180)
The OD of the first is lower: 0.5 for the first, 1.14 for the second.

First: AAAPLNLSMTFP (also called clone 182)
Second: B2
The OD of the first is higher: 0.643 for the first, 0.576 for the second.

Going from TTHSELSGYVEL (also called clone 188) to VSHPPRFPGWPQ (also called clone 59), the OD rises from 0.685 to 0.733.

Compared with TSYLNSGMIPAR (also called clone 63), VGNMPFVHPHQW (also called clone 192) is lower in OD: 0.602 for the first, 0.539 for the second.

Going from KAYLDSIPITPR (also called clone 60) to TQWHDDSTFYWL (also called clone 186), the OD rises from 0.605 to 0.882.

What follows are molecules tested against T2, HTI SPARC (purified platelet SPARC …) (assay: Biacore, SPARC immobilised on the chip; S = soluble scFv).

Work on B3 yielded a Kd of 330 nM.

The molecules below were run against T3, Abx SPARC (SPARC from engineered HEK293 …) in the same assay as above.

B3 showed a Kd of 370 nM.

These molecules were tested against T2, HTI SPARC (purified platelet SPARC …) (assay: Biacore, SPARC immobilised on the chip; R = refolded scFv).

For B4, the Kd was 78000 nM.

Each molecule was assayed against T3, Abx SPARC (SPARC from engineered HEK293 …) in the same assay as above.

For B4, the Kd was 1300 nM.

These molecules were tested against Secreted Protein, Acidic, Rich in Cysteines (SPARC) (UniProt P09486) (assay: phage display panning on immobilised SPARC; times isolated among 134 sequenced clones).

In the case of HLPKSLS (peptide), the Count is reported as 1.

What follows are molecules tested against T1, Secreted Protein, Acidic, Rich in … in the same assay as above.
From the text: as §1

Going from IDKPLHVVLALG (also called clone 184) to IPFATAAYNAPG (also called clone 191), the Count falls from 2 to 1.

First: B1
Second: HYFSRTQTLSTL (also called clone 194)
The Count of the first is higher: 2 for the first, 1 for the second.

SAHTLAAWFAKP (also called clone 204) and QILGYPTNLGPF (also called clone 135) are the same in Count: 1 for the first, 1 for the second.

Going from AHPWRYTEPWSW (also called clone 101; clone 154) to VPATRVSPTPYA (also called clone 133), the Count falls from 6 to 1.

LSTHKLFHSHSQ (also called clone 180) and AAAPLNLSMTFP (also called clone 182) are the same in Count: 1 for the first, 1 for the second.

B2 and TTHSELSGYVEL (also called clone 188) are the same in Count: 1 for the first, 1 for the second.

VSHPPRFPGWPQ (also called clone 59) and TSYLNSGMIPAR (also called clone 63) are the same in Count: 1 for the first, 1 for the second.

VGNMPFVHPHQW (also called clone 192) and KAYLDSIPITPR (also called clone 60) are the same in Count: 1 for the first, 1 for the second.

TQWHDDSTFYWL (also called clone 186) gave a Count of 2.
